Reference: publication PMC8715211

Target: HIV-1 matrix MA1-131 (HIV-1, UniProt C1JB69 2-132)
Test: ITC

B1: human tRNALys3, in vitro transcribed (structured_RNA)
RNA: GCCCGGAUAGCUCAGUCGGUAGAGCAUCAGACUUUUAAUCUGAGGGUCCAGGGUUCAAGUCCCUGUUCGGGCGCCA
modifications: unmodified transcript
Kd: 270 ± 20 nM
